{"source": "the Human Domainome abundance scans (Beltran et al. 2025)", "parents": {"B1": {"name": "Intersectin-2, residues 1129 to 1183; numbered along this chain, Q9NZM3 (parent)", "chain": "VCQVIAMYDYAANNEDELSFSKGQLINVMNKDDPDWWQGEINGVTGLFPSNYVKM"}}, "note": "± gives the uncertainty stated by the source.", "data": [{"variants_of": "B1", "experiment": "abundance fitness (aPCA) (normalised: wild type 0, dead -1); higher = more abundant; growth selection in yeast, the domain comes from the species named", "conditions": "Homo sapiens", "values": [{"variant": "VCQVIAMYLYAANNEDELSFSKGQLINVMNKDDPDWWQGEINGVTGLFPSNYVKM", "abundance fitness": "-0.571 ± 0.05"}, {"variant": "VCQVIAMYDYAANNEDELDFSKGQLINVMNKDDPDWWQGEINGVTGLFPSNYVKM", "abundance fitness": "-0.168 ± 0.075"}, {"variant": "VCQVIAMYDYAANNEDELSFSKGQLINVMNKDDPDWWQGEINQVTGLFPSNYVKM", "abundance fitness": "-0.202 ± 0.067"}, {"variant": "VCQVIAMYDYAANNEDELSFSKGQLINVMNKDDPDTWQGEINGVTGLFPSNYVKM", "abundance fitness": "0.011 ± 0.04"}, {"variant": "VCQVIAMYDYAANNEDELSFSKGQLINVMNKDDPDWTQGEINGVTGLFPSNYVKM", "abundance fitness": "-0.854 ± 0.08"}, {"variant": "VCQVIAMYDYAANNEDELSFSKGQLYNVMNKDDPDWWQGEINGVTGLFPSNYVKM", "abundance fitness": "-0.657 ± 0.12"}, {"variant": "VCQVIAMYDYAANNEDELSFSKGQLINVMNKDDPYWWQGEINGVTGLFPSNYVKM", "abundance fitness": "-0.075 ± 0.042"}, {"variant": "VCQVIAMYDYAANNEDEISFSKGQLINVMNKDDPDWWQGEINGVTGLFPSNYVKM", "abundance fitness": "-0.001 ± 0.058"}, {"variant": "VCQVIAMYDYAANNEDELSFSKGQLINVMNKQDPDWWQGEINGVTGLFPSNYVKM", "abundance fitness": "0.046 ± 0.061"}, {"variant": "VCQVIAMYDYAANNEDELSFSKGQLINVMNKDDPDWWQGEINGVLGLFPSNYVKM", "abundance fitness": "-0.031 ± 0.03"}, {"variant": "VCQVIAMYDYAANNEDELSFSKGQLINVMNKDVPDWWQGEINGVTGLFPSNYVKM", "abundance fitness": "-0.092 ± 0.038"}, {"variant": "VCQVIAMYMYAANNEDELSFSKGQLINVMNKDDPDWWQGEINGVTGLFPSNYVKM", "abundance fitness": "-0.177 ± 0.065"}, {"variant": "VCQVIAMYDYAANNEDELSFSKGQLINVMYKDDPDWWQGEINGVTGLFPSNYVKM", "abundance fitness": "-0.117 ± 0.058"}, {"variant": "VCQVIAMYDYAANNEDELSFSKGQLINVMNKDDPDWWQGEINGVTGSFPSNYVKM", "abundance fitness": "-0.011 ± 0.03"}, {"variant": "VCQVIAMYDYAANNEDELSFSKGQLINVMNKDDPDWWQGEINGFTGLFPSNYVKM", "abundance fitness": "-0.098 ± 0.045"}, {"variant": "VCQVIAMYDYAATNEDELSFSKGQLINVMNKDDPDWWQGEINGVTGLFPSNYVKM", "abundance fitness": "0.011 ± 0.037"}, {"variant": "VCQVIAMYFYAANNEDELSFSKGQLINVMNKDDPDWWQGEINGVTGLFPSNYVKM", "abundance fitness": "-0.364 ± 0.04"}, {"variant": "VCQVIAMYDYAANNEDELSFSKGQLINVMNKDDPDWWQGEINGVTGLFPSNYVKG", "abundance fitness": "-0.097 ± 0.078"}, {"variant": "VCQVIAMYDYAANNEDELSFSKGQLINVMNKDDPDWWQGEINGVTGLFPSNYVNM", "abundance fitness": "-0.08 ± 0.047"}, {"variant": "VCQVIAMYDYPANNEDELSFSKGQLINVMNKDDPDWWQGEINGVTGLFPSNYVKM", "abundance fitness": "-0.069 ± 0.038"}, {"variant": "VCQVIAMYDYAANTEDELSFSKGQLINVMNKDDPDWWQGEINGVTGLFPSNYVKM", "abundance fitness": "-0.001 ± 0.044"}, {"variant": "VCQVIAMYDYAANNEDELSFSKGQLINVMNKDDPFWWQGEINGVTGLFPSNYVKM", "abundance fitness": "-0.085 ± 0.069"}, {"variant": "RCQVIAMYDYAANNEDELSFSKGQLINVMNKDDPDWWQGEINGVTGLFPSNYVKM", "abundance fitness": "-0.228 ± 0.09"}, {"variant": "VCQVIAMYDYAANNEDELSFSKGQLINVMNKDDPDWWQGEINGVTGLFPSNYVAM", "abundance fitness": "-0.119 ± 0.028"}, {"variant": "VCQVIAMNDYAANNEDELSFSKGQLINVMNKDDPDWWQGEINGVTGLFPSNYVKM", "abundance fitness": "0.011 ± 0.047"}, {"variant": "VCQVIAMYDYAANNWDELSFSKGQLINVMNKDDPDWWQGEINGVTGLFPSNYVKM", "abundance fitness": "-0.141 ± 0.047"}, {"variant": "VCQVIAMYDYAANNEDELSFSKGQLINVMNKDDPDWWQTEINGVTGLFPSNYVKM", "abundance fitness": "-0.89 ± 0.11"}, {"variant": "VCQVIAMYDYAANNEDELMFSKGQLINVMNKDDPDWWQGEINGVTGLFPSNYVKM", "abundance fitness": "-0.21 ± 0.036"}, {"variant": "VCQVIAMYDYNANNEDELSFSKGQLINVMNKDDPDWWQGEINGVTGLFPSNYVKM", "abundance fitness": "-0.016 ± 0.054"}, {"variant": "VCQVIAMYDYAANNEDELSFSKGQLINVMNKDDPDWWQGEINGVTGLFPSRYVKM", "abundance fitness": "-0.026 ± 0.039"}, {"variant": "VCQVIAMYDYAANNEDELSFSKGQLINVMNKDDYDWWQGEINGVTGLFPSNYVKM", "abundance fitness": "-0.147 ± 0.042"}, {"variant": "VCQVIAMYDYAANNERELSFSKGQLINVMNKDDPDWWQGEINGVTGLFPSNYVKM", "abundance fitness": "0.001 ± 0.038"}, {"variant": "VCQVIAMYDYAANNNDELSFSKGQLINVMNKDDPDWWQGEINGVTGLFPSNYVKM", "abundance fitness": "-0.123 ± 0.069"}, {"variant": "VCQVIAMYDYAANNEDELSFSKGQLINVMNKDDPDWWQPEINGVTGLFPSNYVKM", "abundance fitness": "-0.864 ± 0.12"}, {"variant": "VCQVIAMYDYAANNEDELSFSKGQLINVMNKDDTDWWQGEINGVTGLFPSNYVKM", "abundance fitness": "-0.009 ± 0.034"}, {"variant": "VCQVIAMYDYAANNEDELSFSKGQLINVMNKDDPDWWQGEINYVTGLFPSNYVKM", "abundance fitness": "-0.237 ± 0.068"}, {"variant": "VCQVIAMYDYAANNEDELSFSKGQLINVMNKDDPDPWQGEINGVTGLFPSNYVKM", "abundance fitness": "-1.03 ± 0.11"}, {"variant": "VCQVIAMYDYAANNEDELSFSKGQLINVMNKDDPDWDQGEINGVTGLFPSNYVKM", "abundance fitness": "-0.865 ± 0.18"}, {"variant": "LCQVIAMYDYAANNEDELSFSKGQLINVMNKDDPDWWQGEINGVTGLFPSNYVKM", "abundance fitness": "-0.206 ± 0.078"}, {"variant": "VCQVIAMYDYAANNEDELSFSKGQLINVMNKDDPDWWFGEINGVTGLFPSNYVKM", "abundance fitness": "-0.059 ± 0.063"}, {"variant": "VCQVIAMYDYAANNEDELSFSKGQLINVMNKDDPDWWQGEINGVTALFPSNYVKM", "abundance fitness": "-0.137 ± 0.03"}, {"variant": "VCQVIAMYDYAANNEDELSFSKGQLPNVMNKDDPDWWQGEINGVTGLFPSNYVKM", "abundance fitness": "-0.925 ± 0.048"}, {"variant": "VCQVIAMYDYAANNEDELSFSKGQLINVMNKDDPDWWQGGINGVTGLFPSNYVKM", "abundance fitness": "-0.157 ± 0.036"}, {"variant": "VCQVIAMYDYAANNEDELQFSKGQLINVMNKDDPDWWQGEINGVTGLFPSNYVKM", "abundance fitness": "-0.217 ± 0.044"}, {"variant": "VCQVIAMCDYAANNEDELSFSKGQLINVMNKDDPDWWQGEINGVTGLFPSNYVKM", "abundance fitness": "-0.011 ± 0.057"}, {"variant": "VCQVIAMYDYAANNEDELSFSKGQLINVMNKDDPDWWQGEINGITGLFPSNYVKM", "abundance fitness": "0.027 ± 0.051"}, {"variant": "VCQVIAMYDYAANNEDELSFSKGQLINVMPKDDPDWWQGEINGVTGLFPSNYVKM", "abundance fitness": "-0.688 ± 0.058"}, {"variant": "VCQVIAMYSYAANNEDELSFSKGQLINVMNKDDPDWWQGEINGVTGLFPSNYVKM", "abundance fitness": "-0.069 ± 0.027"}]}]}
